Measurements: patent publication US20260242735A1 (UNIVERSIT T BASEL, published 2026)

B1: Refmab #1 (antibody, V domains shown)
VH: EVQLVQSGAEVKKPGSSVKVSCKASGYTITDSNIHWVRQAPGQSLEWIGYIYPYNGGTDYNQKFKNRATLTVDNPTNTAYMELSSLRSEDTAFYYCVNGNPWLAYWGQGTLVTVSS
VL: DIQLTQSPSTLSASVGDRVTITCRASESLDNYGIRFLTWFQQKPGKAPKLLMYAASNQGSGVPSRFSGSGSGTEFTLTISSLQPDDFATYYCQQTKEVPWSFGQGTKVEVK
notes: Full-length format is human IgG1 (Absolute Antibody Ab00283-10.0); The alanine scan used IgG or Fab; also called hP67.6
B2: Refmab #2 (antibody, V domains shown)
VH: QVQLVQSGAEVKKPGSSVKVSCKASGGTFSDYAISWVRQAPGQGLEWMGRIIPILGVADYAQKFQGRVTITADKSTRTAYMELSSLRSEDTAVYYCARNWADAFDIWGQGTMVTVSS
VL: DIQLTQSPSSLSASVGDRVTITCRASQGISSVLAWYQQKPGKAPKLLIYDASSLESGVPSRFSGSGSGTDFTLTISSLQPEDFATYYCQQFDSSITFGQGTKLEIK
notes: Full-length format is human IgG1 Fc silent (PG-LALA); The alanine scan used IgG or Fab
B3: Refmab #1 (antibody, human IgG1, V domains shown)
VH: B1 VH
VL: B1 VL
notes: also called hP67.6; Absolute Antibody Cat. No. Ab00283-10.0

How the values were obtained:
[1] = target: human CD33 P48A (human, UniProt P20138 18-364); assay: alanine scan, flow cytometry;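 further: HEK293-T cells transiently expressing single-residue alanine mutants of CD33 (alanine swapped to serine), antibody binding read by fluorescence in duplicate, background-subtracted, expressed relative to wild-type CD33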
Experimental: (§1) An alanine scan on human CD33 was performed to the determine the residues on CD33 that are involved in binding to the antibodies investigated. […] Briefly, a mutation library of CD33 was created by high-throughput, site-directed mutagenesis. Each residue was individually mutated to alanine, with alanine codons mutated to serine. The mutant library was arrayed in 384-well microplates and transiently transfected into HEK293-T. Following transfection, cells were incubated with the indicated antibodies (IgG or Fab) at concentrations pre-determined using an independent immunofluorescence titration curve on wild type CD33. […] Binding of each antibody to each mutant clone was determined in duplicates. For each point, background fluorescence was subtracted from the raw data, which were then normalized to antibody reactivity with wild type CD33.
(§2) Critical residues for antibody binding (outlined in dark grey) were residues whose mutations led to a binding of the test Abs of less than 20%. Additional secondary residues (outlined in light grey) were identified that led to a binding of the test Abs of between 20 and 40% as compared to the wild type CD33.

[2] = target: human CD33 N76A (human, UniProt P20138 18-364); assay: alanine scan, flow cytometry;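 further: HEK293-T cells transiently expressing single-residue alanine mutants of CD33 (alanine swapped to serine), antibody binding read by fluorescence in duplicate, background-subtracted, expressed relative to wild-type CD33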
Experimental: as §1, §2

[3] = target: human CD33 Y50A (human, UniProt P20138 18-364); assay: alanine scan, flow cytometry;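 further: HEK293-T cells transiently expressing single-residue alanine mutants of CD33 (alanine swapped to serine), antibody binding read by fluorescence in duplicate, background-subtracted, expressed relative to wild-type CD33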
Experimental: as §1, §2

[4] = target: human CD33 Q32A (human, UniProt P20138 18-364); assay: alanine scan, flow cytometry;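 further: HEK293-T cells transiently expressing single-residue alanine mutants of CD33 (alanine swapped to serine), antibody binding read by fluorescence in duplicate, background-subtracted, expressed relative to wild-type CD33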
Experimental: as §1, §2

[5] = target: human CD33 E63A (human, UniProt P20138 18-364); assay: alanine scan, flow cytometry
Experimental: as §1, §2

[6] = target: human CD33 S71A (human, UniProt P20138 18-364); assay: alanine scan, flow cytometry
Experimental: as §1, §2

[7] = target: human CD33 P72A (human, UniProt P20138 18-364); assay: alanine scan, flow cytometry
Experimental: as §1, §2

[8] = target: human CD33 C36A (human, UniProt P20138 18-364); assay: alanine scan, flow cytometry
Experimental: as §1, §2

[9] = target: human CD33 L23A (human, UniProt P20138 18-364); assay: alanine scan, flow cytometry
Experimental: as §1, §2

[10] = target: human CD33 R91A (human, UniProt P20138 18-364); assay: alanine scan, flow cytometry
Experimental: as §1, §2

[11] = target: human CD33 D70A (human, UniProt P20138 18-364); assay: alanine scan, flow cytometry
Experimental: as §1, §2

[12] = target: human CD33 H45A (human, UniProt P20138 18-364); assay: alanine scan, flow cytometry
Experimental: as §1, §2

[13] = target: human CD33 A65S (human, UniProt P20138 18-364); assay: alanine scan, flow cytometry
Experimental: as §1, §2

[14] = target: human CD33 S54A (human, UniProt P20138 18-364); assay: alanine scan, flow cytometry
Experimental: as §1, §2

[15] = target: human CD33 P55A (human, UniProt P20138 18-364); assay: alanine scan, flow cytometry
Experimental: as §1, §2

[16] = target: human CD33 E33A (human, UniProt P20138 18-364); assay: alanine scan, flow cytometry
Experimental: as §1, §2

[17] = target: human CD33 S28A (human, UniProt P20138 18-364); assay: alanine scan, flow cytometry
Experimental: as §1, §2

[18] = target: human CD33 Q87A (human, UniProt P20138 18-364); assay: alanine scan, flow cytometry
Experimental: as §1, §2

[19] = target: human CD33 Y59A (human, UniProt P20138 18-364); assay: alanine scan, flow cytometry
Experimental: as §1, §2

[20] = target: human CD33 G58A (human, UniProt P20138 18-364); assay: alanine scan, flow cytometry
Experimental: as §1, §2

[21] = target: human CD33 W60A (human, UniProt P20138 18-364); assay: alanine scan, flow cytometry
Experimental: as §1, §2

[22] = target: human CD33 Q83A (human, UniProt P20138 18-364); assay: alanine scan, flow cytometry
Experimental: as §1, §2

[23] = target: human CD33 E27A (human, UniProt P20138 18-364); assay: alanine scan, flow cytometry
Experimental: as §1, §2

[24] = target: human CD33 D79A (human, UniProt P20138 18-364); assay: alanine scan, flow cytometry
Experimental: as §1, §2

[25] = target: human CD33 P40A (human, UniProt P20138 18-364); assay: alanine scan, flow cytometry
Experimental: as §1, §2

[26] = target: human CD33 F21A (human, UniProt P20138 18-364); assay: alanine scan, flow cytometry
Experimental: as §1, §2

[27] = target: human CD33 Q26A (human, UniProt P20138 18-364); assay: alanine scan, flow cytometry
Experimental: as §1, §2

[28] = target: human CD33 P19A (human, UniProt P20138 18-364); assay: alanine scan, flow cytometry
Experimental: as §1, §2

[29] = target: human CD33 extracellular region F21V (human, UniProt P20138 22-259); assay: BLI Octet, IgG captured on AHC, CD33 analyte;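 further: CD33 variants and wild type run as analyte at 5, 50 and 500 nM, 700 s association then 1200 s dissociation, buffer-only reference subtracted, global 1:1 fit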
Experimental: (§3) Human CD33 wt and variants, were used as analyte at 3 different concentrations (500, 50 and 5 nM). Association of the analyte to the antibodies was monitored for 700 s and dissociation of the analyte from the antibodies was monitored for 1200 s. Reference subtraction was performed against buffer only wells. AHC tips were regenerated using 10 mM Glycine-HCl pH 1.7. Data were analyzed with Octet Data Analysis software HT 12.0. Data were fitted to a 1:1 binding model. Kinetic rates ka and kd and response signal were globally fitted.

[30] = target: human CD33 extracellular region W22R (human, UniProt P20138 18-259); assay: BLI Octet, IgG captured on AHC, CD33 analyte;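 further: CD33 variants and wild type run as analyte at 5, 50 and 500 nM, 700 s association then 1200 s dissociation, buffer-only reference subtracted, global 1:1 fit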
Experimental: as §3

[31] = target: human CD33 extracellular region N20D (human, UniProt P20138 21-259); assay: BLI Octet, IgG captured on AHC, CD33 analyte;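 further: CD33 variants and wild type run as analyte at 5, 50 and 500 nM, 700 s association then 1200 s dissociation, buffer-only reference subtracted, global 1:1 fit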
Experimental: as §3

[32] = target: human CD33 extracellular region W22E (human, UniProt P20138 18-259); assay: BLI Octet, IgG captured on AHC, CD33 analyte;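 further: CD33 variants and wild type run as analyte at 5, 50 and 500 nM, 700 s association then 1200 s dissociation, buffer-only reference subtracted, global 1:1 fit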
Experimental: as §3

[33] = target: human CD33 extracellular region F21S (human, UniProt P20138 22-259); assay: BLI Octet, IgG captured on AHC, CD33 analyte
Experimental: as §3

[34] = target: human CD33 extracellular region F21Q (human, UniProt P20138 22-259); assay: BLI Octet, IgG captured on AHC, CD33 analyte
Experimental: as §3

[35] = target: human CD33 extracellular region F21H (human, UniProt P20138 22-259); assay: BLI Octet, IgG captured on AHC, CD33 analyte
Experimental: as §3

[36] = target: human CD33 extracellular region N20H (human, UniProt P20138 21-259); assay: BLI Octet, IgG captured on AHC, CD33 analyte
Experimental: as §3

[37] = target: human CD33 extracellular region W22S (human, UniProt P20138 18-259); assay: BLI Octet, IgG captured on AHC, CD33 analyte
Experimental: as §3

[38] = target: human CD33 extracellular region F21N (human, UniProt P20138 22-259); assay: BLI Octet, IgG captured on AHC, CD33 analyte
Experimental: as §3

Chain of human CD33 P72A (P20138 18-364 P72A limits assumed): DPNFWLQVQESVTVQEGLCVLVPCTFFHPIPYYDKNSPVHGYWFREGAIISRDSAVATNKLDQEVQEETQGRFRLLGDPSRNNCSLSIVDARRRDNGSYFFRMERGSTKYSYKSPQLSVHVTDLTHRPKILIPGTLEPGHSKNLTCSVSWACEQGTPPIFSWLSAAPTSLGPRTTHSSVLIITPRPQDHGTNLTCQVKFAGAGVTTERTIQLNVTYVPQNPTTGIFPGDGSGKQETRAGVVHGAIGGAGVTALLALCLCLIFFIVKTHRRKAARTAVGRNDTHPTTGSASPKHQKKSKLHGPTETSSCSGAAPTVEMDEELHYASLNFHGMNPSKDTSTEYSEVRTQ
Chain of human CD33 E63A (P20138 18-364 E63A limits assumed): as the sequence (P20138 18-364 P72A limits assumed) above, with E46A, A55P counted along it
Chain of human CD33 S28A (P20138 18-364 S28A limits assumed): as the sequence (P20138 18-364 P72A limits assumed) above, with S11A, A55P counted along it
Chain of human CD33 F21A (P20138 18-364 F21A limits assumed): as the sequence (P20138 18-364 P72A limits assumed) above, with F4A, A55P counted along it
Chain of human CD33 E27A (P20138 18-364 E27A limits assumed): as the sequence (P20138 18-364 P72A limits assumed) above, with E10A, A55P counted along it
Chain of human CD33 Y59A (P20138 18-364 Y59A limits assumed): as the sequence (P20138 18-364 P72A limits assumed) above, with Y42A, A55P counted along it
Chain of human CD33 D79A (P20138 18-364 D79A limits assumed): as the sequence (P20138 18-364 P72A limits assumed) above, with A55P, D62A counted along it
Chain of human CD33 W60A (P20138 18-364 W60A limits assumed): as the sequence (P20138 18-364 P72A limits assumed) above, with W43A, A55P counted along it
Chain of human CD33 C36A (P20138 18-364 C36A limits assumed): as the sequence (P20138 18-364 P72A limits assumed) above, with C19A, A55P counted along it
Chain of human CD33 N76A (P20138 18-364 N76A limits assumed): as the sequence (P20138 18-364 P72A limits assumed) above, with A55P, N59A counted along it
Chain of human CD33 D70A (P20138 18-364 D70A limits assumed): as the sequence (P20138 18-364 P72A limits assumed) above, with D53A, A55P counted along it
Chain of human CD33 A65S (P20138 18-364 A65S limits assumed): as the sequence (P20138 18-364 P72A limits assumed) above, with A48S, A55P counted along it
Chain of human CD33 P55A (P20138 18-364 P55A limits assumed): as the sequence (P20138 18-364 P72A limits assumed) above, with P38A, A55P counted along it
Chain of human CD33 P48A (P20138 18-364 P48A limits assumed): as the sequence (P20138 18-364 P72A limits assumed) above, with P31A, A55P counted along it

Binder	Mean % WT Binding [1] [% WT]	Mean % WT Binding [2] [% WT]	Mean % WT Binding [3] [% WT]	Mean % WT Binding [4] [% WT]	Mean % WT Binding [5] [% WT]	Mean % WT Binding [6] [% WT]	Mean % WT Binding [7] [% WT]	Mean % WT Binding [8] [% WT]	Mean % WT Binding [9] [% WT]	Mean % WT Binding [10] [% WT]	Mean % WT Binding [11] [% WT]	Mean % WT Binding [12] [% WT]	Mean % WT Binding [13] [% WT]	Mean % WT Binding [14] [% WT]	Mean % WT Binding [15] [% WT]	Mean % WT Binding [16] [% WT]	Mean % WT Binding [17] [% WT]	Mean % WT Binding [18] [% WT]	Mean % WT Binding [19] [% WT]	Mean % WT Binding [20] [% WT]	other results
B1	86.2	61.8	86	87	107	108	99.9	72.6	82.7	82	81.3	38.7	88.5	87.6	98.8	86.4	93.9	91	93.6	77.4	Mean % WT Binding [21]: 0.7 % WT; Mean % WT Binding [22]: 87.1 % WT; Mean % WT Binding [23]: 82.5 % WT; Mean % WT Binding [24]: 88.1 % WT; Mean % WT Binding [25]: 74.5 % WT; Mean % WT Binding [26]: 0.4 % WT; Mean % WT Binding [27]: 81.4 % WT; Mean % WT Binding [28]: 80.8 % WT
B2	109	106	141	108	107	112	114	117	83.4	119	110	73.6	112	112	120	120	117	118	95.7	118	Mean % WT Binding [21]: 2.8 % WT; Mean % WT Binding [22]: 107 % WT; Mean % WT Binding [23]: 111 % WT; Mean % WT Binding [24]: 102 % WT; Mean % WT Binding [25]: 101 % WT; Mean % WT Binding [26]: 120 % WT; Mean % WT Binding [27]: 111 % WT; Mean % WT Binding [28]: 111 % WT
B3																					% WT binding [29]: 0%; % WT binding [30]: 26.4%; % WT binding [31]: 0%; % WT binding [32]: 26.4%; % WT binding [33]: 0%; % WT binding [34]: 0%; % WT binding [35]: 0%; % WT binding [36]: 67%; % WT binding [37]: 45.9%; % WT binding [38]: 0%
